From US20100260853A1 (published 2010)
Values joined by “and” are separate entries in the source; they are usually repeats but may differ in a detail not shown here. Identical values can stand only once.

How the values were obtained:
[1] = target: GLP receptor; assay: cell-based or functional assay
[2] = target: T1, human IL-13 (human, UniProt P35225 35-146, limits assumed, biotinylated in the binding ELISA and on the Biacore chip); assay: cell-based or functional assay
[3] = target: T2, cynomolgous IL-13 (cynomolgous, UniProt Q0PW92 19-132, Presumably biotinylated for capture on the streptavidin (SA) chip; biotinylation sites not stated.); assay: cell-based or functional assay
T2 sequence (Q0PW92 entry or part of it limits assumed, form in doubt): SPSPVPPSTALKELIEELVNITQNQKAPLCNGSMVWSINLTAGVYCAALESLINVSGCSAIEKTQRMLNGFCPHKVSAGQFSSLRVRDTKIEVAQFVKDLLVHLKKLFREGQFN

[4] = target: T1, human IL-13; assay: cell-based or functional assay; remark: listed apart in the source
[5] = target: T2, cynomolgous IL-13; assay: cell-based or functional assay; remark: listed apart in the source
[6] = target: T1, human IL-13; assay: sandwich ELISA on hIL-13; material in 1xPBS, not nebulised
[7] = target: T2, cynomolgous IL-13; assay: Biacore, about 100 RU cynomolgous IL-13 on SA chip, dAb in flow
[8] = target: T1, human IL-13; assay: sandwich ELISA on hIL-13; 2.6 mg/mL in PBS, LC+, aerosolized material
[9] = target: T1, human IL-13; assay: Biacore, about 100 RU biotinylated human IL-13 on SA chip, dAb in flow
[10] = target: T1, human IL-13; assay: sandwich ELISA on hIL-13; 2.6 mg/mL in PBS, E-flow, aerosolized material
[11] = target: T1, human IL-13; assay: sandwich ELISA on hIL-13; 2.6 mg/mL in PBS, LC+, material remaining in cup
[12] = target: T1, human IL-13; assay: sandwich ELISA on hIL-13; 2.6 mg/mL in PBS, E-flow, material remaining in cup
[13] = target: T1, human IL-13; assay: sandwich ELISA on hIL-13; 2.3 mg/mL in phosphate/PEG1000/sucrose, LC+, aerosolized material
[14] = target: T1, human IL-13; assay: sandwich ELISA on hIL-13; 4.7 mg/mL in phosphate/PEG1000/sucrose, LC+, aerosolized material
[15] = target: T1, human IL-13; assay: sandwich ELISA on hIL-13; 2.3 mg/mL in phosphate/PEG1000/sucrose, E-flow, aerosolized material
[16] = target: T1, human IL-13; assay: sandwich ELISA on hIL-13; 4.7 mg/mL in phosphate/PEG1000/sucrose, E-flow, aerosolized material
[17] = target: T1, human IL-13; assay: sandwich ELISA on hIL-13; 2.3 mg/mL in phosphate/PEG1000/sucrose, LC+, material remaining in cup
[18] = target: T1, human IL-13; assay: sandwich ELISA on hIL-13; 4.7 mg/mL in phosphate/PEG1000/sucrose, LC+, material remaining in cup
[19] = target: T1, human IL-13; assay: sandwich ELISA on hIL-13; 4.7 mg/mL in phosphate/PEG1000/sucrose, E-flow, material remaining in cup
[20] = target: T1, human IL-13; assay: sandwich ELISA: dAb mixed with hIL-13, capture and detection by mouse anti-human IL-13 antibodies, OD450
[21] = target: T1, human IL-13; assay: binding ELISA: biotinylated human IL-13 on NeutrAvidin plate, bound dAb detected with anti-human Ig (VH specific)
[22] = target: T1, human IL-13; assay: 'Binding Assay' on hIL-13 as headed in Table 12; PARI LC*, aerosol sample at 3 mins
[23] = target: T1, human IL-13; assay: 'Binding Assay' on hIL-13 as headed in Table 12; PARI LC*, aerosol sample at 15 mins
[24] = target: T1, human IL-13; assay: 'Binding Assay' on hIL-13 as headed in Table 12; PARI LC*, aerosol sample at 29 mins
[25] = target: T1, human IL-13; assay: 'Binding Assay' on hIL-13 as headed in Table 12; 20 mg/ml in PBS, before nebulisation
[26] = target: T1, human IL-13; assay: 'Binding Assay' on hIL-13 as headed in Table 12; PARI LC*, reservoir sample at 3 mins
[27] = target: T1, human IL-13; assay: 'Binding Assay' on hIL-13 as headed in Table 12; PARI LC*, reservoir sample at 15 mins
[28] = target: T1, human IL-13; assay: 'Binding Assay' on hIL-13 as headed in Table 12; PARI LC*, reservoir sample at 29 mins

“Exendin 4 (G4S)3 DOM7h-14 fusion (DAT0115) (from UniProt P26349)” showed a DAT01 cell assay EC50, CHO 6CRE/luciferase reporter (sample: DAT0115 LC+ aerosol 3 mins) [1] of 296 pM, a DAT01 cell assay EC50, CHO 6CRE/luciferase reporter (sample: DAT0115 LC+ aerosol 15 mins) [1] of 316 pM and a DAT01 cell assay EC50, CHO 6CRE/luciferase reporter (sample: DAT0115 LC+ aerosol 29 mins) [1] of 142 pM. The DAT01 cell assay EC50, CHO 6CRE/luciferase reporter (sample: DAT0115 LC+ cup 3 mins) [1] was 725 pM, the DAT01 cell assay EC50, CHO 6CRE/luciferase reporter (sample: DAT0115 LC+ cup 15 mins) [1] was 453 pM and the DAT01 cell assay EC50, CHO 6CRE/luciferase reporter (sample: DAT0115 LC+ cup 29 mins) [1] was 445 pM. The DAT01 cell assay EC50, CHO 6CRE/luciferase reporter (sample: DAT0115 T0) [1] was 178 pM, the DAT01 cell assay EC50, CHO 6CRE/luciferase reporter (sample: DAT0115 e-Flow aerosol 3 mins) [1] was 798 pM and the DAT01 cell assay EC50, CHO 6CRE/luciferase reporter (sample: DAT0115 e-Flow cup 3 mins) [1] was 535 pM.

B1: DOM10-53-474 (other)
chain: GVQLLESGGGLVQPGGSLRLSCAASGFTFAWYDMGWVRQAPGKGLEWVSSIDWHGEVTYYADSVKGRFTISRDNSKNTLYLQMNSLRAEDTAVYYCATAEDEPGYDYWGQGTLVTVSS
For B1, the “HEK assay hIL-13 EC50 (HEK293 STAT6 SEAP reporter, 6 ng/ml IL-13)” value [2] was 0.63 nM, the “HEK assay cIL-13 EC50 (HEK293 STAT6 SEAP reporter)” value [3] was 11.1 nM and the “HEK cell assay EC50, Hu IL-13 (sample: DOM10-53-474 standard)” value [4] was 0.62 nM. The “HEK cell assay EC50, Cyno IL-13 (sample: DOM10-53-474 standard)” value [5] was 15.2 nM, the IC50 [6] was 0.0458 nM and 0.0356 nM and 0.0289 nM and 0.0269 nM and the Kd [7] was 2 nM. It also gave an IC50 [8] of 0.023 nM, a Kd [9] of 0.028 nM and an IC50 [10] of 0.0351 nM. For the same molecule, the IC50 [11] was 0.0339 nM, the IC50 [12] was 0.0224 nM and the IC50 [13] was 0.0348 nM. It also gave an IC50 [14] of 0.0149 nM, an IC50 [15] of 0.0322 nM and an IC50 [16] of 0.0185 nM. It also gave an IC50 [17] of 0.0317 nM, an IC50 [18] of 0.0129 nM and an IC50 [19] of 0.0214 nM. The EC50 [20] was 0.057 nM and the EC50 [21] was 1.08 nM.

B2: DOM10-275-78 (other)
chain: EVQLLESGGGLVQPGGSLRLSCVASGFTFDVAEMDWVRQAPGKGLEWVSTISPSRRGTYYADSVKGRFTISRDNSKNTLYLQMNSLRAEDTAVYYCAKAYTGRSLWGPGTLVTVSS
In the case of B2, the “HEK assay hIL-13 EC50 (HEK293 STAT6 SEAP reporter, 6 ng/ml IL-13)” value [2] is reported as 2.5 nM, the “HEK assay cIL-13 EC50 (HEK293 STAT6 SEAP reporter)” value [3] is reported as 1.4 nM and the “HEK cell assay EC50, Hu IL-13 (sample: DOM10-275-78 aerosol 3 mins)” value [4] is reported as 1.8 nM. The “HEK cell assay EC50, Hu IL-13 (sample: DOM10-275-78 aerosol 15 mins)” value [4] was 1.01 nM, the “HEK cell assay EC50, Hu IL-13 (sample: DOM10-275-78 aerosol 29 mins)” value [4] was 0.62 nM and the “HEK cell assay EC50, Hu IL-13 (sample: DOM10-275-78 cup 3 mins)” value [4] was 1.45 nM. For the same molecule, the “HEK cell assay EC50, Hu IL-13 (sample: DOM10-275-78 cup 15 mins)” value [4] was 2.18 nM, the “HEK cell assay EC50, Hu IL-13 (sample: DOM10-275-78 cup 29 mins)” value [4] was 0.48 nM and the “HEK cell assay EC50, Hu IL-13 (sample: DOM10-275-78 start)” value [4] was 0.58 nM. For the same molecule, the “HEK cell assay EC50, Cyno IL-13 (sample: DOM10-275-78 aerosol 3 mins)” value [5] was 0.99 nM, the “HEK cell assay EC50, Cyno IL-13 (sample: DOM10-275-78 aerosol 15 mins)” value [5] was 0.95 nM and the “HEK cell assay EC50, Cyno IL-13 (sample: DOM10-275-78 aerosol 29 mins)” value [5] was 0.74 nM. The “HEK cell assay EC50, Cyno IL-13 (sample: DOM10-275-78 cup 3 mins)” value [5] was 1.77 nM, the “HEK cell assay EC50, Cyno IL-13 (sample: DOM10-275-78 cup 15 mins)” value [5] was 1.52 nM and the “HEK cell assay EC50, Cyno IL-13 (sample: DOM10-275-78 cup 29 mins)” value [5] was 0.74 nM. The “HEK cell assay EC50, Cyno IL-13 (sample: DOM10-275-78 start)” value [5] was 0.93 nM, the Kd [7] was 0.32 to 0.75 nM and the Kd [9] was 0.072 to 0.1 nM. It also gave an IC50 [22] of 1.1 nM, an IC50 [23] of 1 nM and an IC50 [24] of 1.1 nM. It also gave an IC50 [25] of 1.2 nM, an IC50 [26] of 1.1 nM and an IC50 [27] of 1.2 nM. It also gave an IC50 [28] of 1.1 nM, an EC50 [20] of 3.33 nM and an EC50 [21] of 1.3 nM.
